In US8263074B2, “Fibroblast growth factor receptor-1 inhibitors and methods of treatment thereof” (ImClone LLC, priority 2003, dated 2012):

Key:
FGFR-1c = target: T1, FGFR-1c (Homo sapiens, UniProt P11362); test: BiaCore binding kinetics; details: BiaCore biosensor; read-out: Binding Kinetic (Kd), FGFR-1c
T1 construct: purchased R&D Systems

FGFR-2b = target: T2, FGFR-2b (Homo sapiens, UniProt P21802); test: BiaCore binding kinetics; details: BiaCore kinetic analysis
T2 construct: purchased R&D Systems
T2 sequence (P21802 22-822 isoform P21802-3 limits assumed): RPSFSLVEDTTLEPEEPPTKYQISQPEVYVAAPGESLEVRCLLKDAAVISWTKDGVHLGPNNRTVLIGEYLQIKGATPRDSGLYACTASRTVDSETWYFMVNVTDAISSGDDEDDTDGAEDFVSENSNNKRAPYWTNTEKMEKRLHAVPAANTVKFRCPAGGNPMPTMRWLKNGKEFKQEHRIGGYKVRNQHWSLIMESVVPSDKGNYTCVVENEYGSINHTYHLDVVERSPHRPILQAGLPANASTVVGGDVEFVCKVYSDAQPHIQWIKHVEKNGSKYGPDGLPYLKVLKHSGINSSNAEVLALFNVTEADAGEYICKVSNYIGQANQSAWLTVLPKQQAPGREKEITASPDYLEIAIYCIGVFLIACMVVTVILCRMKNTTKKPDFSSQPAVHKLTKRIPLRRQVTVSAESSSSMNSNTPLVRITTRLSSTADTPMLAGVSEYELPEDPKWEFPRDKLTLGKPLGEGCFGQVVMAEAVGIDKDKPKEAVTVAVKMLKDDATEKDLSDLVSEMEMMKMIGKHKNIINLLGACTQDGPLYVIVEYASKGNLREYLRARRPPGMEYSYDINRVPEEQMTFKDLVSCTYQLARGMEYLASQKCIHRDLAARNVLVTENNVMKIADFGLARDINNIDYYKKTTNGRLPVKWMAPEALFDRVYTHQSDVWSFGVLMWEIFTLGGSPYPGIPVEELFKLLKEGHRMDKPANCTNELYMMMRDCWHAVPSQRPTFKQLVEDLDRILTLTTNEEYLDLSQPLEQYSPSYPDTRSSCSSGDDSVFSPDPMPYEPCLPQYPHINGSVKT

FGFR-3b = target: T3, FGFR-3b (Homo sapiens, UniProt P22607); test: BiaCore binding kinetics; details: BiaCore kinetic analysis
T3 construct: purchased R&D Systems
T3 sequence (P22607 23-808 isoform P22607-2 limits assumed): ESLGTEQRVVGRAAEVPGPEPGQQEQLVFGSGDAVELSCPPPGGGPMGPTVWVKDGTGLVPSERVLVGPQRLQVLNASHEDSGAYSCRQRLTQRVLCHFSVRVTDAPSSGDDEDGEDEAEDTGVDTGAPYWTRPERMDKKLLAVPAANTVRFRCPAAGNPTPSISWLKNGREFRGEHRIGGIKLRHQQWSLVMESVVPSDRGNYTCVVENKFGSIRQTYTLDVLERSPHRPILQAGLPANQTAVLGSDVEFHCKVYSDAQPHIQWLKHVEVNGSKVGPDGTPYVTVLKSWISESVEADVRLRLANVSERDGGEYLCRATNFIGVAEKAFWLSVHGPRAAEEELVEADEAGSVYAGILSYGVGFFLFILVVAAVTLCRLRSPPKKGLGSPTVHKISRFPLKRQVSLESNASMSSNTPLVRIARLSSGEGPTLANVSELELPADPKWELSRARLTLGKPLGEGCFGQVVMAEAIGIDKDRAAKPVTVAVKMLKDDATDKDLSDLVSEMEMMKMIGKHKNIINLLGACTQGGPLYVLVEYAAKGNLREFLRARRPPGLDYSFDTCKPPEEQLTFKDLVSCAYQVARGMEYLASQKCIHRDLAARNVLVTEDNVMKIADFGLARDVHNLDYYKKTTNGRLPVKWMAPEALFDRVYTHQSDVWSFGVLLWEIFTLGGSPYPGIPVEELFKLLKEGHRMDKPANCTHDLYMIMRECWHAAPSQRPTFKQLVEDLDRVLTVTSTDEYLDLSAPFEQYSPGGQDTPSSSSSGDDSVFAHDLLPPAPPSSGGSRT

FGFR-3c = target: T4, FGFR-3c (Homo sapiens, UniProt P22607); test: BiaCore binding kinetics; details: BiaCore kinetic analysis
T4 construct: purchased R&D Systems
T4 sequence (P22607 23-806): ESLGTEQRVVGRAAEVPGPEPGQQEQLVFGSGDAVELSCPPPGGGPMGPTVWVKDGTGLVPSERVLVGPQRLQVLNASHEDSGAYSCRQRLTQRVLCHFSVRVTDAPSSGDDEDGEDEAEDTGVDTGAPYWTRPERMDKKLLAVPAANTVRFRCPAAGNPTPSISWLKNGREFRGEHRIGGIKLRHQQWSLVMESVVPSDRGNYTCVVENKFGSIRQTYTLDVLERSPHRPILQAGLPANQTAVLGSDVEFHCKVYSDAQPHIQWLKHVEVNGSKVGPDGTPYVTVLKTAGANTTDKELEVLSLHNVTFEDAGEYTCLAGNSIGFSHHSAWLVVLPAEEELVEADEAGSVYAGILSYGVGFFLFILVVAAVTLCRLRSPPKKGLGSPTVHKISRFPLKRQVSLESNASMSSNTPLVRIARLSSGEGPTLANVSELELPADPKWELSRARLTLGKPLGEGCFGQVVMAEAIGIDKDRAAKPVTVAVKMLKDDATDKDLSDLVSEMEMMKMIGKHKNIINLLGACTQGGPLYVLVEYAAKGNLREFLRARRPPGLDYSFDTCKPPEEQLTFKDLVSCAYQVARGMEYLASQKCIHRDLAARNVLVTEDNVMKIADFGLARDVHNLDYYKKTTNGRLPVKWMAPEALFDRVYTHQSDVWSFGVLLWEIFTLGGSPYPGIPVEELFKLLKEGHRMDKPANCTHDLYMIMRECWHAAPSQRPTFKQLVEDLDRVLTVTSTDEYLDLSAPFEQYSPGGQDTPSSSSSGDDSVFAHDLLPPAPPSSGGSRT

[1] = tested on: Human umbilical vascular endothelial cells (HUVECs); test: HUVEC proliferation assay (3H-thymidine); assay type: cell-based; details: 3H-thymidine incorporation
Experimental: Human umbilical vascular endothelial cells (HUVECs) were seeded in 96-well tissue culture plates at a concentration of 5×10^4 cells/ml. After attachment, cells were quiesced in EMG-2 medium lacking EGF, VEGF and FGF-2 (Cambrex, East Rutherford, N.J.) for 24 hrs. Quiescent media in wells were aspirated and replaced with EMG-2 that contained all the growth factors mentioned above. Antibodies were serially diluted and added to the wells. Cells were incubated at 37° C. with 5% CO2 in a Muaire™ DH autoflow incubator (Cryostar Industries, Inc., White Hall, Pa.) for 48-72 hrs. Cell growth was determined by monitoring ^3H-thymidine incorporation using a 1450 Micorbeta liquid scintillation counter (Perkin Elmer, Gaithersburg, Md.).

human adipocytes = test: Adipocyte proliferation assay (3H-thymidine); assay type: cell-based; details: 15 ng/ml FGF-2, 60 hrs
Experimental: Two-week-old (after induced differentiation) grade 2 human adipocytes were obtained from Zen-Bio Inc. (Research Triangle, N.C.), and were maintained in the shipping media in a 96-well tissue culture plate. To evaluate the effects of FGF-2 on the proliferation of adipocytes, recombinant FGF-2 (R&D systems) was serially diluted and added to the wells of the plate. The cells were allowed to grow in the incubator for 60 hrs, before the level of ^3H-thymidine incorporation was determined. To evaluate the effects of FR1-H7 on adipocytes proliferation, the antibody was serially diluted and added to the cells before addition of recombinant FGF-2 to a final concentration of 15 ng/ml. ^3H-thymidine incorporation was determined after 60 hrs of incubation.

[2] = Body weight in C57 black mice; assay type: in vivo; details: after 4 treatments
Experimental: The antibodies weight-reducing effects on other strains of mice, C57 black mice and db/db mice were tested (The Jackson Laboratory, Bar Harbor, Me.). The C57 mice were injected with 0.8 mg/kg, 4 mg/kg, and 40 mg/kg antibody and saline on a Monday, Wednesday, Friday, and following Monday rotation schedule with body weights being measured before each injection and on day 9.

[3] = Energy expenditure and body composition in C57 black mice (incl. paired-feeding); assay type: in vivo
Experimental: To elucidate the mechanism of the weight-loss induced by FGFR antagonistic antibodies, the effect of FR1-H7 on energy expenditure and body composition of mice was studied. […] A paired-feeding experiment was also conducted which food consumption of control antibody treated animals was restrained to exact that of FR1-H7 treated animals (FIG. 27). […] Moreover, body composition (Day 1 and 5) and energy consumption determined for the two groups were mostly indistinguishable.
This study consisted of two stages. In the first stage, female C57 black mice (Charles River Laboratories, Wilmington, Mass.) were randomized into two groups (n=16) and individually housed in a metabolic cage. Both groups of Mice were given hi-carbohydrate content chow and water ad libitum. […] Body composition was determined using NMR on Day 1 and Day 5. Body weight and food consumption were determined daily. Energy expenditure, ambulatory activities, and oxygen consumption and were monitored continuously. RER were calculated based on energy expenditure and oxygen consumption.
In the second stage, both groups of Mice were given water ad libitum, but only 2 g of hi-carbohydrate content chow each animal per day. The amount of food given was determined in the first stage experiment to be the averaged daily food assumption of those animals one day after being treated with FR1-H7 (10 mg/kg body weight, intraperitonaeally). […]

FGFR-1(IIIc) = FGFR-1(IIIc) (Homo sapiens, UniProt P11362); test: Cell-based blocking assay (125I-FGF-2 binding to FGFR-1(IIIc) expressing L6 cells); set-up: expressed in transfected cells; host or cells: L6 (ATCC), pBABE retroviral vector; details: at 200 nM antibody
FGFR-1(IIIc), sequence (P11362 22-822): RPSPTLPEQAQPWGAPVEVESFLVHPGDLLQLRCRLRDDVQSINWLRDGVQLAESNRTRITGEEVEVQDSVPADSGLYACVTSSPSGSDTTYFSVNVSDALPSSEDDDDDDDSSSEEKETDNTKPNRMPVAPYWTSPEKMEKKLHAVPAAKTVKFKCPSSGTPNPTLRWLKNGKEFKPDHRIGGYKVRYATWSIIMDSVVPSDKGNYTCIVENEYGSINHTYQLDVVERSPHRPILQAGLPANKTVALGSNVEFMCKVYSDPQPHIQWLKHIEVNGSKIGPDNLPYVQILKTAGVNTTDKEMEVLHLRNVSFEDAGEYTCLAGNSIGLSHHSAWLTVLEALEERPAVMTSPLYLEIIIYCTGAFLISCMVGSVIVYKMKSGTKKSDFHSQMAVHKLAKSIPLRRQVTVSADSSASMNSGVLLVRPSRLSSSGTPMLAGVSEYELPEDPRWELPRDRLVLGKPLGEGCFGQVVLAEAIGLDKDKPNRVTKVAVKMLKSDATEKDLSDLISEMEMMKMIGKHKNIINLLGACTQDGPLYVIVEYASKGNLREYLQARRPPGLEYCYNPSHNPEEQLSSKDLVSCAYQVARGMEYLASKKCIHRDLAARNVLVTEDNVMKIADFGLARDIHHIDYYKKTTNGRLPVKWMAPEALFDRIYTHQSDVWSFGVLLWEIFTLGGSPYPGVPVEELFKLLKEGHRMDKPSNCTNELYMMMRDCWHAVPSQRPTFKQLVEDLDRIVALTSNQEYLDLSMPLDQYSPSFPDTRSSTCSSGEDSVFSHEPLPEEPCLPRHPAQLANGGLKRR
Experimental: An FGFR-1(IIIc) expressing cell line was constructed by retro-viral transfecting L6 (ATCC, Manassas, Va.) using a pBABE vector that has a puromycin resistant gene (Invitrogen). Transfected cells were cultured in 10% FBS, DMEM (Invitrogen) in 6-well tissue culture plates until reaching confluency, Before the blocking experiment, cells were serum starved for 8-24 hrs at 37° C. in DMEM medium that contains 0.1% FBS and 5 μg/ml heparin. Before the addition of any reagents, plates were put on ice for 1 hr to minimize receptor internalization. For binding experiment, iodinated recombinant FGF-2 was added at various concentrations to the wells of the plates. For blocking experiments, serially diluted FR1-H7 antibody was added and incubated with the cells on ice for 1 hr before iodinated recombinant FGF-2 was added to each well to a final concentration of 15 ng/ml. Binding was for 1 hr at 0-4° C., after which time the solutions were aspirated and the plates were washed 5 times with ice-cold PBS. Cells were lyzed with 0.5 ml ice-cold cell lysis buffer for 30 minutes. Radioactivity of the cell lysates was detected using a Wizard 1470 automatic gamma counter (Turku, Finland). Non-specific interaction was determined in a binding experiment in which iodinated FGF-2 was incubated with the cells in presence of 200 fold excess of cold ligand.

T1 sequence (P11362 22-822): as above

B1: FR1-H7: human monoclonal antibody from phage Fab library, specific for FGFR-1(IIIb) and/or FGFR-1(IIIc), and/or FGFR-4(IIIc); VH/VL SEQ ID NOS:7, 8 (antibody, listed as Homo sapiens)
VH: MAEVQLVQSGAEVKKPGASVKVSCKVSGYTFTDYYMHWVQQAPGKGLEWMGLVDPEDGETIYAEKFQGRVTITADTSTDTAYMELSSLRSEDTAVYYCARDDYMDVWGKGTLVTVSSASTKGP
VL: LETTLTQSPDTLSLSPGEGATLSCRASQSVSGSALAWYQQKPGQAPRLLIYDASSRATGVPDRFSGSGSGADFSLTISRLEPEDFAVYSCQQYGSSPLTFGPGTKVDVKRTVAAPSVFIFPPSDEQLKSGTASVVCLLNNFYPREAKVQWKVD
- Kd (FGFR-1c): 0.04 nM
- Kd (FGFR-2b): > 1000 nM
- Kd (FGFR-3b): > 1000 nM
- Kd (FGFR-3c): > 1000 nM
- proliferation of HUVECs in vitro [1]: inhibited the proliferation of HUVECs in vitro in a dose-dependant manner
- FGF-2-stimulated proliferation of adipocytes (human adipocytes): inhibited the FGF-2-stimulated proliferation of adipocytes in a dose dependant manner
- weight reduction compared to the starting weights ([2]; 0.8 mg/kg): approximately 5%
- weight reduction compared to the starting weights ([2]; 4 mg/kg): ~16%
- weight reduction compared to the starting weights ([2]; 40 mg/kg): ~16%
- body weight, food intake, muscle and fat mass, energy expenditure and Respiratory Exchange Ratio (RER) compared to the controls ([3]; 10 mg/kg i.p. Day 2 and Day 4, food ad libitum): decreases
- weight loss versus pair-fed control antibody treated animals ([3]; 10 mg/kg i.p., paired-feeding, 5-day period): identical weight-loss trajectories
- blocking of specific 125I-FGF-2 binding to the cells (FGFR-1(IIIc)): near completion
